From patent US5879896A, “Method of screening for inhibitors of human thyrotropin releasing hormone (TRH) receptor” (Takeda Chemical Industries, Ltd., priority 1993, dated 1999)
Where two headings read alike, the source gives them in different places. Square brackets hold non-standard residues; d marks the D form. Ends that are not written are not given here. pGlu = O=C1CC[C@@H](C(=O)O)N1; ΔPro = O=C(O)[C@@H]1C=CCN1; His(3-Me) = 3-Me-His

T1: human TRH receptor (Homo sapiens, UniProt P34981)
T1 sequence (P34981 1-398): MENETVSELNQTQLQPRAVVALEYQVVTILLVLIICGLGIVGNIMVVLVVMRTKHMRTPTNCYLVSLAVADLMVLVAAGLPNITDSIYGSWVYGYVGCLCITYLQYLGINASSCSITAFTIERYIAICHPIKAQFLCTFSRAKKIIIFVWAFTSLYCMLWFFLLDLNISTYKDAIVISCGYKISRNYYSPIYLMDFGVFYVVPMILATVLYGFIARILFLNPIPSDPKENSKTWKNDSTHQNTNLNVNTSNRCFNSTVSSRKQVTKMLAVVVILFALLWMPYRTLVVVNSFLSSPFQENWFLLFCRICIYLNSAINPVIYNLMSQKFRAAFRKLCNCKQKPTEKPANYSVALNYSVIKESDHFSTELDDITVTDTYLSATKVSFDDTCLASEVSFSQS

T2: human TRH receptor protein (human)
T2 chain: T1 sequence (P34981 1-398)


Tests used:
human TRH receptor [1] = target: T1, human TRH receptor; experiment: c-fos promoter / secretive alkaline phosphatase assay in human TRH receptor expression CHO cells (Example 9); type: cell-based; design: translation frame (open reading frame) of the human TRH receptor was constructed on pUC118; expressed in transfected cells; host or cells: CHO dhfr- cells (plasmid pAKKO1.11 with the human TRH receptor open reading frame); settings: c-fos promoter activation, overnight (FIG. 14)
Method: An insertion of a secretive alkaline phosphatase gene linked to a c-fos promoter into a TRH receptor expression cell was conducted as follows:
5×10^5 TRH receptor expression CHO cells were inoculated onto a 10 cm plate and they were cultivated for 24 hours in Ham's F12 medium (Lifetech Oriental) equipped with 10% fetal bovine serum. 3 μg of a vector (pSVP4-Ap-neo, FIG. 13) which was introduced by a secretive alkaline phosphatase gene downstream from the c-fos promoter was introduced into the CHO cells using a gene introducing kit (Cell Phect, Pharmacia) by calcium phosphate method. The cells introduced by the vector were cloned in the above-described medium equipped with 500 μg/ml of G418. 39 clones were isolated and clones which have high TRH responsiveness were further selected.
Cell stimulating activity through a TRH receptor using activation of c-fos promoter as an indicator was assayed as follows:
Each 5×10^4 of the above-described transformants were inoculated onto 96 hole plates for tissue cultivation (Corning) and they were cultivated for a night. […] The plate was assayed by a fluorescence plate reader (Fluoroskan II, Titertek) at 365 nm of excitation and 450 nm of luminescence.

human TRH receptor [2] = target: T1, human TRH receptor; experiment: [3H]TRH binding to Sf9 cells infected with recombinant baculovirus carrying human TRH receptor genes (Example 3); design: translation frame (open reading frame) of the human TRH receptor was constructed on pUC118; expressed in transfected cells; settings: 1000-fold unlabeled TRH (10 μM) (FIG. 8)
pituitary glands = settings: literature; cited from earlier work
human TRH receptor [3] = target: T1, human TRH receptor; experiment: Release of [3H]-labeled arachidonic acid from CHO cells into which human TRH receptor DNAs were introduced (Example 7); type: cell-based; design: translation frame (open reading frame) of the human TRH receptor was constructed on pUC118; expressed in transfected cells; host or cells: CHO dhfr- cells (plasmid pAKKO1.11 with the human TRH receptor open reading frame); settings: TRH concentration dependence, compared with control (HBSS alone) (FIG. 10)
Method: (§1) CHO cells into which the human TRH receptor DNAs obtained in Example 4 were subcultured at a density of 1.0×10^6 cells/well to a 12-well tissue culture plate (Sumitomo Bakelite) and cultivated for 24 hours. The medium was removed and replaced by a fresh medium. Then, [^3 H] […] arachidonic acid (du Pont/NEN, specific activity: 60-100 Ci/mmol) was added to give a concentration of 0.5 μCi/well. After addition of arachidonic acid, the cells were further cultivated for 24 hours, and washed three times with Hanks' balanced salt solution (HBSS) supplemented with 0.05% BSA. Thereafter, 495 μl/well of HBSS supplemented with 0.05% BSA was added thereto. Then, 5 μl of a test solution was added thereto, and incubation was conducted for 30 minutes at room temperature to release arachidonic acid in the medium. HBSS (400 μl) of the supernatant was recovered, and mixed with liquid scintillator A (Wako Pure Chemical Industries). The amount of released [^3 H]-labeled arachidonic acid was measured by use of a liquid scintillation counter (Beckmann).
Further, in the receptor binding experiment of Example 6, the releasing activity of arachidonic acid was measured using 4 kinds of compounds strongly that can antagonize the binding of [^3 H]

human TRH receptor [4] = target: T1, human TRH receptor; experiment: Antagonism of [3H]TRH binding in CHO dhfr- cells transformed with human TRH receptor DNA (Examples 5 and 6); design: translation frame (open reading frame) of the human TRH receptor was constructed on pUC118; expressed in transfected cells; host or cells: CHO dhfr- cells (plasmid pAKKO1.11 with the human TRH receptor open reading frame); settings: 1 h
CHO dhfr- cells [5] = experiment: Release of [3H]-labeled arachidonic acid from control CHO dhfr- cells (Example 7); type: cell-based, Chinese hamster; settings: TRH added (FIG. 10)
Method: as §1

CHO dhfr- cells [6] = experiment: [3H]TRH binding to CHO dhfr- cell line into which no human TRH receptor DNA was introduced (Example 4); design: species or system Chinese hamster; settings: no human TRH receptor DNA introduced (FIG. 9)
Method: This plasmid was cleaved with SalI and ClaI. The plasmid obtained in Example 3 in which the translation frame (open reading frame) of the human TRH receptor was constructed on pUC118 was cleaved with HindIII, and repaired with a Klenow fragment, followed by addition of an SalI linker. The resulting fragment was further cleaved with SmaI, and a fragment containing the translation frame (open reading frame) of the human TRH receptor and a ClaI linker were added thereto. This was cleaved with SalI and ClaI, and thereafter, the plasmid DNA previously cleaved with SalI and ClaI was bound thereto to complete an expression plasmid. This plasmid DNA was purified by cesium chloride equilibrium density gradient centrifugation, and partially introduced into the CHO dhfr^- cell line with a gene introduction kit (CellPhect, Pharmacia) by the calcium phosphate precipitation method. The original CHO dhfr^- cell line is impossible to grow in a medium not containing a nucleoside and a nucleotide, because of lack of dhfr phenotype. […] The cells were dissolved in 500 μl of 1% SDS and 0.2N NaOH, and the radioactivity contained therein was measured by use of liquid scintillator A. In order to know the non-specific binding, a group was also prepared to which non-labeled TRH was added to a final concentration of 10 μM in addition to [^3 H] […]

[7] = target: T2, human TRH receptor protein; experiment: competition with 10 nM 3H-TRH, CHO cells expressing human TRH receptor; compound at 10^-11 M
Method: (§2) In Table 2, the degree of a reduction in the binding of [^3H] TRH in the case where the TRH analogous compound having respective concentrations was added to the total binding of [^3H] TRH in the case where no TRH analogous compound existed was indicated as percentage. The specific activity of [^3H] TRH used in the experiment was 83.04 Ci/mmol, and this was added to give a concentration of 10 nM in the reaction solution. For the compounds indicated by (*1) in the table, the specific activity of [^3H] TRH was 45 Ci/mmol, and this was added to give a concentration of 18.3 nM in the reaction solution.

[8] = target: T2, human TRH receptor protein; experiment: competition with 18.3 nM 3H-TRH, CHO cells expressing human TRH receptor; compound at 10^-6 M
Method: as §2

[9] = target: T2, human TRH receptor protein; experiment: competition with 18.3 nM 3H-TRH, CHO cells expressing human TRH receptor; compound at 10^-9 M
Method: as §2

[10] = target: T2, human TRH receptor protein; experiment: competition with 18.3 nM 3H-TRH, CHO cells expressing human TRH receptor; compound at 10^-8 M
Method: as §2

[11] = target: T2, human TRH receptor protein; experiment: competition with 18.3 nM 3H-TRH, CHO cells expressing human TRH receptor; compound at 10^-10 M
Method: as §2

[12] = target: T2, human TRH receptor protein; experiment: competition with 10 nM 3H-TRH, CHO cells expressing human TRH receptor; compound at 10^-6 M
Method: as §2

[13] = target: T2, human TRH receptor protein; experiment: competition with 10 nM 3H-TRH, CHO cells expressing human TRH receptor; compound at 10^-10 M
Method: as §2

[14] = target: T2, human TRH receptor protein; experiment: competition with 10 nM 3H-TRH, CHO cells expressing human TRH receptor; compound at 10^-9 M
[15] = target: T2, human TRH receptor protein; experiment: competition with 18.3 nM 3H-TRH, CHO cells expressing human TRH receptor; compound at 10^-5 M
Method: as §2

[16] = target: T2, human TRH receptor protein; experiment: competition with 10 nM 3H-TRH, CHO cells expressing human TRH receptor; compound at 10^-8 M
[17] = target: T2, human TRH receptor protein; experiment: competition with 10 nM 3H-TRH, CHO cells expressing human TRH receptor; compound at 10^-7 M
Method: as §2

[18] = target: T2, human TRH receptor protein; experiment: competition with 10 nM 3H-TRH, CHO cells expressing human TRH receptor; compound at 10^-12 M
Method: as §2

[19] = target: T2, human TRH receptor protein; experiment: competition with 18.3 nM 3H-TRH, CHO cells expressing human TRH receptor; compound at 10^-7 M
Method: as §2

[20] = target: T2, human TRH receptor protein; experiment: competition with 10 nM 3H-TRH, CHO cells expressing human TRH receptor; compound at 10^-5 M
[21] = read-out: Antagonistic Rate (%) at Each Concentration (-log M)
[22] = read-out: Antagonistic Rate (%) at Each Concentration (-log M) (*1)

Molecule	Antagonistic Rate (%) [7]	Antagonistic Rate (%) [8]	Antagonistic Rate (%) [9]	Antagonistic Rate (%) [10]	Antagonistic Rate (%) [11]	Antagonistic Rate (%) [13]	Antagonistic Rate (%) [14]	Antagonistic Rate (%) [15]	Antagonistic Rate (%) [16]	Antagonistic Rate (%) [18]	Antagonistic Rate (%) [19]	Antagonistic Rate (%) [20]	also measured
NC(=O)[C@@H]1CCCN1C(=O)[C@H](Cc1cnc[nH]1)NC(=O)[C@@H]1CCC(=O)N1 [TRH, pGlu His Pro NH2]	–	–	–	–	–	–	–	–	–	–	–	–	Alkaline phosphatase secretion into supernatant, in words (human TRH receptor [1]): alkaline phosphatase secrets into the supernatant depending on the concentration of TRH added; Antagonism of [3H]TRH binding by unlabeled TRH, in words (human TRH receptor [2]): antagonized the binding; Secretion of pituitary hormones, in words (pituitary glands): promoting secretion of thyroid stimulating hormone and prolactin of the pituitary glands; Amount of arachidonic acid released, in words (human TRH receptor [3]): increase the amount of arachidonic acid released depending upon the concentration; inhibition at 1 pM (human TRH receptor [4]; [21]): 0%; inhibition at 10 pM (human TRH receptor [4]; [21]): 0.7%; inhibition at 0.0001 µM (human TRH receptor [4]; [21]): 0.3%; inhibition at 0.001 µM (human TRH receptor [4]; [21]): 7.2%; inhibition at 0.01 µM (human TRH receptor [4]; [21]): 52%; inhibition at 0.1 µM (human TRH receptor [4]; [21]): 90.7%; inhibition at 1 µM (human TRH receptor [4]; [21]): 98.7%; inhibition at 10 µM (human TRH receptor [4]; [21]): 99.7%; inhibition at 0.0001 µM (human TRH receptor [4]; [22]): -0.7%; inhibition at 0.001 µM (human TRH receptor [4]; [22]): 4.2%; inhibition at 0.01 µM (human TRH receptor [4]; [22]): 39.8%; inhibition at 0.1 µM (human TRH receptor [4]; [22]): 83.9%; inhibition at 1 µM (human TRH receptor [4]; [22]): 97.8%; inhibition at 10 µM (human TRH receptor [4]; [22]): 99.7%; Amount of arachidonic acid released, in words (CHO dhfr- cells [5]): no change was observed
[L-proline-2,3,4,5-^3 H(N)]-(Pyro)Glu-His-Pro-NH2 [[^3 H] TRH]	–	–	–	–	–	–	–	–	–	–	–	–	Specific binding, in words (CHO dhfr- cells [6]): no specific binding was detected at all
[pGlu]-His-Pro-NH2 [TRH (pGlu His Pro NH2)]	0.7%	97.8%	4.2%	39.8%	-0.7%	0.3%	7.2%	99.7%	52%	0%	83.9%	99.7%	Antagonistic Rate (%) [12]: 98.7%; Antagonistic Rate (%) [17]: 90.7%
[pGlu]-His-[ΔPro]-NH2 (SMILES NC(=O)[C@@H]1C=CCN1C(=O)[C@H](Cc1c[nH]cn1)NC(=O)[C@@H]1CCC(=O)N1) [pGlu His 3,4-dihydro-Pro NH2]	–	98.3%	7%	39.1%	2.2%	–	–	99.7%	–	–	84.6%	–	–
Glu-His-Pro-NH2 [Glu His Pro NH2]	–	70.7%	1%	1.8%	2%	–	–	95.3%	–	–	19.7%	–	–
[pGlu]-[His(3-Me)]-Pro-NH2 [pGlu 3-Me-His Pro NH2]	-7.1%	–	–	–	–	-4.4%	20%	–	85%	-6.5%	–	97.9%	–
